Patent US20240207463A1, “RADIOACTIVE COMPLEX OF ANTI-EGFR ANTIBODY, AND RADIOPHARMACEUTICAL” (NIHON MEDI-PHYSICS CO., LTD., priority 2021, published 2024)

Key:
[1] = Hepatotoxicity and nephrotoxicity markers (AST, ALT, BUN) in COLO205 tumor-bearing mice; conditions: final day of observation
Experimental: As a comparison group, a group (oxaliplatin administration group) was set by administering 33 μL of oxaliplatin into the tail vein at a dose of 5 mg/mL 3 times every other week. […] Each group contained 6 mice, and observation of general condition and measurement of the body weight and tumor volume were performed until the end of the observation period. In the Figure, the vertical axis indicates mean tumor volume of each group, and the horizontal axis indicates the number of days elapsed since administration of each medicament. […] On the final day of observation, the mice were autopsied, and the blood was collected. The collected blood was analyzed by a dry chemistry analyzer (SPOTCHEM D-02, manufactured by ARKRAY, Inc.) by measuring aspartate aminotransferase (AST), alanine aminotransferase (ALT), and blood urea nitrogen (BUN) in plasma by using SPOTCHEM D Total-A2 (manufactured by ARKRAY, Inc.), and hepatotoxicity and nephrotoxicity were evaluated.

[2] = system: tumor derived from COLO205 cells; test: Accumulation in tumor, PET imaging in COLO205 tumor-bearing mice; assay type: in vivo, mouse
Experimental: COLO205 cells of EGFR high expression human colorectal cancer-derived cell line purchased from ATCC were suspended in DMEM medium and administered subcutaneously to the flanks of 5-week-old female BALB/c nu/nu (Charles River Laboratories Japan, Inc.) at 5×10^6 cells to prepare tumor-bearing mice. The tumor volume was allowed to grow to about 100 to 250 mm^3, and the radioconjugate produced as described in Example 7 was administered at a dose of about 6 MBq/mouse (each n=3) into the tail vein. After 72 hr and 120 hr from the administration, images were taken using a small animal PET imaging device under conditions similar to those in Evaluation 2.
The arrow in the image indicates a tumor derived from COLO205 cells used for tumor-bearing. When VOI was set for the tumor and muscle (femoral muscle) in each imaged mouse and the SUV (Standard Uptake Value) was calculated, the value was 3.18±0.72 for tumor and 0.48±0.02 for muscle at 72 hr after administration and 4.38±0.96 for tumor and 0.48±0.05 for muscle at 120 hr after administration. Using the values, the radioactivity accumulation ratio of tumor to muscle was calculated. As a result, the ratio was 6.67±1.52 at 72 hr after administration and 9.19±2.02 at 120 hr after administration, and a higher level of radioactivity was accumulated in the tumor as compared with other organs and EGFR positive tumor could be depicted.

[3] = system: COLO205 cells, HCT-116 cells, SW48 cells, MIAPaCa-2 cells, NCI-H358 cells; test: Cytotoxic effect on cultured cells, overall statement; assay type: cell-based, human; conditions: 120 hours; up to maximum concentration added (antibody concentration 156 nM)
Experimental: In addition, unlabeled panitumumab was added to an antibody concentration the same as that of the sample at each radioactivity concentration, and the cells were cultured. After 120 hours from the sample addition, CellTiter-Glo (registered trademark) 2.0 Cell Viability Assay (manufactured by Promega) was added to the medium, chemiluminescence was detected using a microplate reader (SpectraMax i3x, manufactured by Molecular Devices, LLC), and the number of viable cells was calculated. The ratio of the number of viable cells under conditions where no antibody was added to the calculated number of viable cells was taken, and the cytotoxic effect was evaluated. Furthermore, the obtained results were fitted by a […] regression method using GraphPad Prism 7 (manufactured by GraphPad Software), and EC50 was calculated.

[4] = system: SW48 cells and COLO205 cells; test: Apoptosis induction, Caspase-Glo 3/7 Assay; assay type: cell-based, human; conditions: 72 hours, both cells
Experimental: In addition, unlabeled panitumumab was added to an antibody concentration the same as that of the group at each radioactivity concentration, and the cells were cultured. After 72 hours from the sample addition, an apoptosis assay kit (Caspase-Glo (registered trademark) 3/7 Assay, manufactured by Promega) was added, and Caspase-3/7 activity was detected using a microplate reader.

O=C1[O][Pt]2([NH][C@@H]3CCCC[C@H]3[NH]2)[O]C1=O [oxaliplatin, reference compound]
hepatotoxicity and nephrotoxicity (AST, ALT, BUN in plasma) [1]: no hepatotoxicity or nephrotoxicity was confirmed

Example 7: Complex with panitumumab using 89Zr-labeled DOTAGA-DBCO
SUV (Standard Uptake Value), muscle (femoral muscle) ([2]; 72 hr after administration): 0.48±0.02 | SUV (Standard Uptake Value), muscle (femoral muscle) ([2]; 120 hr after administration): 0.48±0.05 | SUV (Standard Uptake Value), tumor ([2]; 120 hr after administration): 4.38±0.96 | SUV (Standard Uptake Value), tumor ([2]; about 6 MBq/mouse tail vein, 72 hr after administration): 3.18±0.72

panitumumab [unlabeled panitumumab, reference compound]
cytotoxic effect [3]: no cytotoxic effect was confirmed | apoptosis induction (Caspase-3/7 activity) [4]: apoptosis induction was not confirmed
